System: Escherichia coli TOP10
Assay: shrunken log2 fold change of peptide-encoding DNA abundance (4.5 h post-induction vs induction); higher = less antimicrobial activity (less host growth inhibition)
Details: time post-induction: 4.5 h; library: site-saturation at positions 5, 18, 19, 20
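Also: peptides expressed intracellularly from a pBAD plasmid library in pooled LB shake-flask culture, induced with 0.3% L-arabinose, DNA abundance read by NGS, three biological replicates, DESeq2 with apeglm shrinkage.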

RRIRGRPPRLPRPRPRPCIRPRP
shrunken log2 fold change: 0.174

RRIRGRPPRLPRPRPRPCKAPRP
shrunken log2 fold change: 0.377

RRIRGRPPRLPRPRPRPCKKPRP
shrunken log2 fold change: 0.00863

RRIRGRPPRLPRPRPRPCMEPRP
shrunken log2 fold change: 0.831

RRIRGRPPRLPRPRPRPCNRPRP
shrunken log2 fold change: 0.212

RRIRGRPPRLPRPRPRPCPAPRP
shrunken log2 fold change: 0.383

RRIRGRPPRLPRPRPRPCPNPRP
shrunken log2 fold change: 0.0353

RRIRGRPPRLPRPRPRPCQCPRP
shrunken log2 fold change: 0.268

RRIRGRPPRLPRPRPRPCRYPRP
shrunken log2 fold change: 0.24

RRIRGRPPRLPRPRPRPCTEPRP
shrunken log2 fold change: 0.509

RRIRGRPPRLPRPRPRPCTGPRP
shrunken log2 fold change: 0.11

RRIRGRPPRLPRPRPRPCTTPRP
shrunken log2 fold change: 0.141

RRIRGRPPRLPRPRPRPCWRPRP
shrunken log2 fold change: 0.248

RRIRGRPPRLPRPRPRPCYPPRP
shrunken log2 fold change: 0.0523

RRIRGRPPRLPRPRPRPDADPRP
shrunken log2 fold change: 3.64

RRIRGRPPRLPRPRPRPDAKPRP
shrunken log2 fold change: 2

RRIRGRPPRLPRPRPRPDAPPRP
shrunken log2 fold change: 1.9

RRIRGRPPRLPRPRPRPDCDPRP
shrunken log2 fold change: 0.841

RRIRGRPPRLPRPRPRPDDMPRP
shrunken log2 fold change: 0.00936

RRIRGRPPRLPRPRPRPDDVPRP
shrunken log2 fold change: 0.966

RRIRGRPPRLPRPRPRPDEDPRP
shrunken log2 fold change: 0.168

RRIRGRPPRLPRPRPRPDEPPRP
shrunken log2 fold change: 1.37

RRIRGRPPRLPRPRPRPDFSPRP
shrunken log2 fold change: 0.313

RRIRGRPPRLPRPRPRPDGMPRP
shrunken log2 fold change: 0.86

RRIRGRPPRLPRPRPRPDIAPRP
shrunken log2 fold change: 0.782

RRIRGRPPRLPRPRPRPDIHPRP
shrunken log2 fold change: 0.439

RRIRGRPPRLPRPRPRPDIMPRP
shrunken log2 fold change: 0.0438

RRIRGRPPRLPRPRPRPDQRPRP
shrunken log2 fold change: 0.55

RRIRGRPPRLPRPRPRPDRDPRP
shrunken log2 fold change: 0.326

RRIRGRPPRLPRPRPRPDVEPRP
shrunken log2 fold change: 1.27

RRIRGRPPRLPRPRPRPDWRPRP
shrunken log2 fold change: 0.404

RRIRGRPPRLPRPRPRPDWTPRP
shrunken log2 fold change: 0.316

RRIRGRPPRLPRPRPRPEAHPRP
shrunken log2 fold change: 0.079

RRIRGRPPRLPRPRPRPEAIPRP
shrunken log2 fold change: 1.82

RRIRGRPPRLPRPRPRPEAMPRP
shrunken log2 fold change: 0.59

RRIRGRPPRLPRPRPRPECKPRP
shrunken log2 fold change: 0.841

RRIRGRPPRLPRPRPRPECYPRP
shrunken log2 fold change: 0.25

RRIRGRPPRLPRPRPRPEEFPRP
shrunken log2 fold change: 0.593

RRIRGRPPRLPRPRPRPEGVPRP
shrunken log2 fold change: 1.48

RRIRGRPPRLPRPRPRPEIGPRP
shrunken log2 fold change: 1.92

RRIRGRPPRLPRPRPRPEKYPRP
shrunken log2 fold change: 0.172

RRIRGRPPRLPRPRPRPELGPRP
shrunken log2 fold change: 1.45

RRIRGRPPRLPRPRPRPELIPRP
shrunken log2 fold change: 0.408

RRIRGRPPRLPRPRPRPELMPRP
shrunken log2 fold change: 0.853

RRIRGRPPRLPRPRPRPEMPPRP
shrunken log2 fold change: 1.48

RRIRGRPPRLPRPRPRPEPEPRP
shrunken log2 fold change: 1.51

RRIRGRPPRLPRPRPRPEPMPRP
shrunken log2 fold change: 0.648

RRIRGRPPRLPRPRPRPEPSPRP
shrunken log2 fold change: 1.47

RRIRGRPPRLPRPRPRPEQDPRP
shrunken log2 fold change: 1.47

RRIRGRPPRLPRPRPRPEQFPRP
shrunken log2 fold change: 0.846

RRIRGRPPRLPRPRPRPEREPRP
shrunken log2 fold change: 1.1

RRIRGRPPRLPRPRPRPERFPRP
shrunken log2 fold change: 0.969

RRIRGRPPRLPRPRPRPEVAPRP
shrunken log2 fold change: 1.88

RRIRGRPPRLPRPRPRPEVGPRP
shrunken log2 fold change: 1.52

RRIRGRPPRLPRPRPRPEYMPRP
shrunken log2 fold change: 0.409

RRIRGRPPRLPRPRPRPFAHPRP
shrunken log2 fold change: 0.162

RRIRGRPPRLPRPRPRPFARPRP
shrunken log2 fold change: 0.484

RRIRGRPPRLPRPRPRPFCAPRP
shrunken log2 fold change: 0.836

RRIRGRPPRLPRPRPRPFCEPRP
shrunken log2 fold change: 0.403

RRIRGRPPRLPRPRPRPFEIPRP
shrunken log2 fold change: -0.017

RRIRGRPPRLPRPRPRPFFDPRP
shrunken log2 fold change: 0.541

RRIRGRPPRLPRPRPRPFFFPRP
shrunken log2 fold change: 0.696

RRIRGRPPRLPRPRPRPFFHPRP
shrunken log2 fold change: -0.0568

RRIRGRPPRLPRPRPRPFFNPRP
shrunken log2 fold change: 0.186

RRIRGRPPRLPRPRPRPFHCPRP
shrunken log2 fold change: -0.36

RRIRGRPPRLPRPRPRPFLIPRP
shrunken log2 fold change: -0.0796

RRIRGRPPRLPRPRPRPFMGPRP
shrunken log2 fold change: -0.123

RRIRGRPPRLPRPRPRPFMTPRP
shrunken log2 fold change: 0.837

RRIRGRPPRLPRPRPRPFNCPRP
shrunken log2 fold change: -0.116

RRIRGRPPRLPRPRPRPFNIPRP
shrunken log2 fold change: -0.199

RRIRGRPPRLPRPRPRPFNYPRP
shrunken log2 fold change: -0.419

RRIRGRPPRLPRPRPRPFPQPRP
shrunken log2 fold change: 0.717

RRIRGRPPRLPRPRPRPFPRPRP
shrunken log2 fold change: 1.01

RRIRGRPPRLPRPRPRPFQSPRP
shrunken log2 fold change: -0.00674

RRIRGRPPRLPRPRPRPFREPRP
shrunken log2 fold change: -0.21

RRIRGRPPRLPRPRPRPFSIPRP
shrunken log2 fold change: -0.0155

RRIRGRPPRLPRPRPRPFSVPRP
shrunken log2 fold change: 0.429

RRIRGRPPRLPRPRPRPFTVPRP
shrunken log2 fold change: -0.31

RRIRGRPPRLPRPRPRPGCMPRP
shrunken log2 fold change: 0.898

RRIRGRPPRLPRPRPRPGFTPRP
shrunken log2 fold change: 0.11

RRIRGRPPRLPRPRPRPGGNPRP
shrunken log2 fold change: 0.0695

RRIRGRPPRLPRPRPRPGGVPRP
shrunken log2 fold change: 1.06

RRIRGRPPRLPRPRPRPGLHPRP
shrunken log2 fold change: 0.682

RRIRGRPPRLPRPRPRPGLSPRP
shrunken log2 fold change: 1.12

RRIRGRPPRLPRPRPRPGMFPRP
shrunken log2 fold change: 0.474

RRIRGRPPRLPRPRPRPGNAPRP
shrunken log2 fold change: 0.478

RRIRGRPPRLPRPRPRPGNNPRP
shrunken log2 fold change: -0.0385

RRIRGRPPRLPRPRPRPGQMPRP
shrunken log2 fold change: 0.483

RRIRGRPPRLPRPRPRPGQYPRP
shrunken log2 fold change: -0.0691

RRIRGRPPRLPRPRPRPGSGPRP
shrunken log2 fold change: 0.808

RRIRGRPPRLPRPRPRPGSHPRP
shrunken log2 fold change: 0.12

RRIRGRPPRLPRPRPRPGSQPRP
shrunken log2 fold change: 0.722

RRIRGRPPRLPRPRPRPGVQPRP
shrunken log2 fold change: 0.739

RRIRGRPPRLPRPRPRPGWIPRP
shrunken log2 fold change: 0.117

RRIRGRPPRLPRPRPRPGYGPRP
shrunken log2 fold change: -0.0363

RRIRGRPPRLPRPRPRPGYKPRP
shrunken log2 fold change: 0.191

RRIRGRPPRLPRPRPRPGYWPRP
shrunken log2 fold change: 1.88

RRIRGRPPRLPRPRPRPHADPRP
shrunken log2 fold change: 1.68

RRIRGRPPRLPRPRPRPHDIPRP
shrunken log2 fold change: 0.0295

RRIRGRPPRLPRPRPRPHFAPRP
shrunken log2 fold change: 0.628

RRIRGRPPRLPRPRPRPHFGPRP
shrunken log2 fold change: 0.242

RRIRGRPPRLPRPRPRPHGKPRP
shrunken log2 fold change: 0.513

RRIRGRPPRLPRPRPRPHHRPRP
shrunken log2 fold change: -0.00334

RRIRGRPPRLPRPRPRPHIGPRP
shrunken log2 fold change: 0.109

RRIRGRPPRLPRPRPRPHISPRP
shrunken log2 fold change: -0.0962

RRIRGRPPRLPRPRPRPHKNPRP
shrunken log2 fold change: 0.535

RRIRGRPPRLPRPRPRPHKWPRP
shrunken log2 fold change: 0.183

RRIRGRPPRLPRPRPRPHLIPRP
shrunken log2 fold change: 0.205

RRIRGRPPRLPRPRPRPHMEPRP
shrunken log2 fold change: 0.0707

RRIRGRPPRLPRPRPRPHQFPRP
shrunken log2 fold change: 0.106

RRIRGRPPRLPRPRPRPHQHPRP
shrunken log2 fold change: 0.112

RRIRGRPPRLPRPRPRPHRNPRP
shrunken log2 fold change: -0.184

RRIRGRPPRLPRPRPRPHRSPRP
shrunken log2 fold change: 0.188

RRIRGRPPRLPRPRPRPHSQPRP
shrunken log2 fold change: 0.322

RRIRGRPPRLPRPRPRPHTAPRP
shrunken log2 fold change: 0.149

RRIRGRPPRLPRPRPRPHTMPRP
shrunken log2 fold change: -0.175

RRIRGRPPRLPRPRPRPICRPRP
shrunken log2 fold change: -0.0289

RRIRGRPPRLPRPRPRPIDDPRP
shrunken log2 fold change: 0.329

RRIRGRPPRLPRPRPRPIDEPRP
shrunken log2 fold change: 0.433

RRIRGRPPRLPRPRPRPIGDPRP
shrunken log2 fold change: 0.667

RRIRGRPPRLPRPRPRPIGKPRP
shrunken log2 fold change: 0.035

RRIRGRPPRLPRPRPRPIHAPRP
shrunken log2 fold change: 0.418

RRIRGRPPRLPRPRPRPIHGPRP
shrunken log2 fold change: -0.161

RRIRGRPPRLPRPRPRPIHYPRP
shrunken log2 fold change: -0.242

RRIRGRPPRLPRPRPRPIIMPRP
shrunken log2 fold change: -0.129

RRIRGRPPRLPRPRPRPIKDPRP
shrunken log2 fold change: 0.309

RRIRGRPPRLPRPRPRPIMFPRP
shrunken log2 fold change: 0.382

RRIRGRPPRLPRPRPRPIMRPRP
shrunken log2 fold change: 0.818

RRIRGRPPRLPRPRPRPIMWPRP
shrunken log2 fold change: 0.39

RRIRGRPPRLPRPRPRPIPKPRP
shrunken log2 fold change: -0.117

RRIRGRPPRLPRPRPRPIPNPRP
shrunken log2 fold change: 0.172

RRIRGRPPRLPRPRPRPIRTPRP
shrunken log2 fold change: 0.21

RRIRGRPPRLPRPRPRPISAPRP
shrunken log2 fold change: 0.363

RRIRGRPPRLPRPRPRPISTPRP
shrunken log2 fold change: 0.289

RRIRGRPPRLPRPRPRPITDPRP
shrunken log2 fold change: 0.0223

RRIRGRPPRLPRPRPRPITGPRP
shrunken log2 fold change: 0.064

RRIRGRPPRLPRPRPRPIVKPRP
shrunken log2 fold change: 0.328

RRIRGRPPRLPRPRPRPIVLPRP
shrunken log2 fold change: -0.0411

RRIRGRPPRLPRPRPRPIWGPRP
shrunken log2 fold change: 0.128

RRIRGRPPRLPRPRPRPKCCPRP
shrunken log2 fold change: 0.56

RRIRGRPPRLPRPRPRPKCEPRP
shrunken log2 fold change: 1.14

RRIRGRPPRLPRPRPRPKCKPRP
shrunken log2 fold change: 0.51

RRIRGRPPRLPRPRPRPKCLPRP
shrunken log2 fold change: -0.0243

RRIRGRPPRLPRPRPRPKDAPRP
shrunken log2 fold change: 0.432

RRIRGRPPRLPRPRPRPKDGPRP
shrunken log2 fold change: 0.798

RRIRGRPPRLPRPRPRPKDLPRP
shrunken log2 fold change: -0.0839

RRIRGRPPRLPRPRPRPKEAPRP
shrunken log2 fold change: 0.948

RRIRGRPPRLPRPRPRPKETPRP
shrunken log2 fold change: -0.0578

RRIRGRPPRLPRPRPRPKFQPRP
shrunken log2 fold change: 0.528

RRIRGRPPRLPRPRPRPKFWPRP
shrunken log2 fold change: 0.533
